Several values for one entry are separate records, joined by “and”; a condition that tells them apart may be missing. Identical values can stand only once.
Tests used:
[1] = biological target: human ROR1 (hROR1) on cells (human) (UniProt Q01973); test: FACS, HEK293T-hROR1 cells; isotype control
[2] = biological target: cynomolgus ROR1 (cynoROR1) on CHO-K1 cells (cynomolgus); test: FACS, CHO-K1-cynoROR1 cells; isotype control
[3] = biological target: human ROR1 (hROR1) on cells (human) (UniProt Q01973); test: FACS, A549 cells; isotype control
[4] = biological target: human ROR1 (hROR1) on cells (human) (UniProt Q01973); test: cell-based or functional assay
hROR2ECD-his (human) = hROR2ECD-his (human) (UniProt Q01974); test: ELISA, plate coated with hROR2 ECD-his; isotype control
hROR2ECD-his (human), sequence (Q01974 34-403): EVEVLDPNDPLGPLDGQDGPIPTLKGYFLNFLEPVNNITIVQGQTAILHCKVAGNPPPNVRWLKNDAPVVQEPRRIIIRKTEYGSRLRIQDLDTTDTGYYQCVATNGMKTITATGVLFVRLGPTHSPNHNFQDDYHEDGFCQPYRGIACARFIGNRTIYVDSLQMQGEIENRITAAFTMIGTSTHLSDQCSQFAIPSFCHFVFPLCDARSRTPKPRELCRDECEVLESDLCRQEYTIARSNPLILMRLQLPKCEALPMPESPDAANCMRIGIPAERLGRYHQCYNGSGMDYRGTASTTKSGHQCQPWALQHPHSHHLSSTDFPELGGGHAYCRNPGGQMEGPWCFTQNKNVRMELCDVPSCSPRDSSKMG

[5] = biological target: Human ROR1-ECD-his (human) (UniProt Q01973); test: ELISA, plate coated with hROR1 ECD-his; isotype control
Human ROR1-ECD-his (human), sequence (Q01973 30-406): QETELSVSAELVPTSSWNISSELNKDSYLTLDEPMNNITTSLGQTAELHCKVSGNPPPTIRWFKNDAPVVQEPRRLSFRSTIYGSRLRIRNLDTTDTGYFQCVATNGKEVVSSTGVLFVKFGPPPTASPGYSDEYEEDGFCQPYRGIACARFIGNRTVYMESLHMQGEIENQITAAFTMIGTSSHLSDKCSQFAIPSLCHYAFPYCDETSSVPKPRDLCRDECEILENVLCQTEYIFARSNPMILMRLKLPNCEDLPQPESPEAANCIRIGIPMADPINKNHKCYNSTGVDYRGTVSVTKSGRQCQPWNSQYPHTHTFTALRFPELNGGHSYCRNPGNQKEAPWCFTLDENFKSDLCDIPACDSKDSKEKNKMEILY

human ROR1 (hROR1) on cells (human), sequence (Q01973 30-937): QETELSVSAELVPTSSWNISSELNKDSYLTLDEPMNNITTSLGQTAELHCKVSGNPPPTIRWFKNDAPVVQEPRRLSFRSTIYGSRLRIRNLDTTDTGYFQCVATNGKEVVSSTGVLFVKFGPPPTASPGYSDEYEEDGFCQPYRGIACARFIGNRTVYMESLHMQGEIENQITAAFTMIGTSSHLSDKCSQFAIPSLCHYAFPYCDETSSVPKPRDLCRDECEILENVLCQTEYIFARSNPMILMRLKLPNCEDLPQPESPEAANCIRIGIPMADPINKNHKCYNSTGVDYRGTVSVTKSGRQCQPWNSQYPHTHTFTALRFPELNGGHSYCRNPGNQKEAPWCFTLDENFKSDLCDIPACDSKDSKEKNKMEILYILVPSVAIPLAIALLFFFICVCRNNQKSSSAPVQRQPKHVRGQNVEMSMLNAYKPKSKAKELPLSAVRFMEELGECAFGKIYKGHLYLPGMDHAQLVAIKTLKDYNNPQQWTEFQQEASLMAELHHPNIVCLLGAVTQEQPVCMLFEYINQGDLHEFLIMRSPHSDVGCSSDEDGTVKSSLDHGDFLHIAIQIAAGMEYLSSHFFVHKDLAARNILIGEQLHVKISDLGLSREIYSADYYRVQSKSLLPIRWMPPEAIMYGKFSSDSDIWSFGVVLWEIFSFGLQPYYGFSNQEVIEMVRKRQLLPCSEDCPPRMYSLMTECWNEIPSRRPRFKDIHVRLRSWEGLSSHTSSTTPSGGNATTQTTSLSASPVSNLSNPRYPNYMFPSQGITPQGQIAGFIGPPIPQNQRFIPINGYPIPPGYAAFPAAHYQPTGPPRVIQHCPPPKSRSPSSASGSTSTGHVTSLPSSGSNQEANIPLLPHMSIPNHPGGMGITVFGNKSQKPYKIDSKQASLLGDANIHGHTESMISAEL

MAX(MFI) [1]: 226 MFI
MAX(MFI) [2]: 140 MFI
MAX(MFI) [3]: 119 MFI
ADCP, percentage of double-stained cells, 0.1 nM (control) [4]: 6.79% and 5.59%
ADCP, percentage of double-stained cells, 10 nM (control) [4]: 6.53% and 7.46%
ELISA signal (called MFI) (hROR2ECD-his (human)): 0.041
ELISA signal (called MFI) [5]: 0.036
Substance: human Iso IgG1 (CrownBio, Cat#: C0001-4) (antibody)
ADCC Cytotoxicity (%), Donor 1, 1 nM (negative control) [4]: 9.89%
ADCC Cytotoxicity (%), Donor 1, 10 nM (negative control) [4]: 10.4%
ADCC Cytotoxicity (%), Donor 2, 1 nM (negative control) [4]: 10.8%
ADCC Cytotoxicity (%), Donor 2, 10 nM (negative control) [4]: 10.5%

Reference: patent publication US20240010721A1
